Values belong to the binder of their own block, whether it stands above or below them.
Assays:
[1] = target: T1, HA-tagged AKT Y176F mutant (UniProt P31749 1-480); assay: pull-down of purified proteins on GST-Ack1 glutathione beads, immunoblot
T1 construct: also called Y176F mutant of AKT; HA-Y176F; not shown: HA tag

[2] = target: T2, endogenous Ack1 of mouse embryo fibroblasts (mouse, UniProt O54967 1-1055, limits assumed); assay: co-IP with Ack1 antibodies from EGF-treated MEF lysates, immunoblot with pan-AKT antibodies
T2 construct: Endogenous protein immunoprecipitated from MEF lysates with anti-Ack1 antibodies; also called TNK2
T2 sequence (O54967 whole entry): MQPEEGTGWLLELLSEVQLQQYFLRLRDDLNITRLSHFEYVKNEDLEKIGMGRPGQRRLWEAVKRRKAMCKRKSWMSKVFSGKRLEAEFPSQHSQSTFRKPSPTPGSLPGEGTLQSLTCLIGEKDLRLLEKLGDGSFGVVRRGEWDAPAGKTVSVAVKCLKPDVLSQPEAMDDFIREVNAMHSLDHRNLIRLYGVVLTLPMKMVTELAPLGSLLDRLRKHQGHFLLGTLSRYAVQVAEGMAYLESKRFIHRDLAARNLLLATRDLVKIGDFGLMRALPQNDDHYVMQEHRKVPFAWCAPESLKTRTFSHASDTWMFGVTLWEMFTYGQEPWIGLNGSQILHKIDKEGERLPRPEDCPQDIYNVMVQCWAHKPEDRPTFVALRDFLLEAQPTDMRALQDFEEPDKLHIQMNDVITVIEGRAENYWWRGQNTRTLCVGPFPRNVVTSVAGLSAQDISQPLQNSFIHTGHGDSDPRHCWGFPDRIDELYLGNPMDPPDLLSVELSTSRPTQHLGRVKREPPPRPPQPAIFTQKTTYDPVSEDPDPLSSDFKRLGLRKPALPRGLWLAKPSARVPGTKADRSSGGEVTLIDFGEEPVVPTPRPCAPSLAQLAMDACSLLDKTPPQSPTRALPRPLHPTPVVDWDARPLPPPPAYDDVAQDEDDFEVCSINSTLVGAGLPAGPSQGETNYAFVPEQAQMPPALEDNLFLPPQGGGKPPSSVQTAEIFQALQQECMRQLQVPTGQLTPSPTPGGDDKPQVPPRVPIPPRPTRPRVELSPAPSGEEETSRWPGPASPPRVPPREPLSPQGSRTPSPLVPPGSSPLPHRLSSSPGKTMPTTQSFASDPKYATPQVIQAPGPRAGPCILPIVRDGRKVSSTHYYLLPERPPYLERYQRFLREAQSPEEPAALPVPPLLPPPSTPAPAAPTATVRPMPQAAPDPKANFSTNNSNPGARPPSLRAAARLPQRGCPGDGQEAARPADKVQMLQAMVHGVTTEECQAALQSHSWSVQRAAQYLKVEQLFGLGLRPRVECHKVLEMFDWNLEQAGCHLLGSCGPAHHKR
Procedure: Membrane and cytosolic fractionation was performed using membrane fractionation kit (BioVision, Inc, CA). The nuclear/cytoplasmic fractionation was performed using protocol from Abcam (Abcam, Inc., Cambridge, Mass.). For immunoprecipitations, cells were lysed in receptor lysis buffer (RLB) containing 25 mmol/L Tris (pH 7.5), 500 mmol/L NaCl, 1% Triton X-100, 10% glycerol, phosphatase inhibitors (10 mmol/L NaF, 1 mmol/L Na₂VO₄), and protease inhibitor mix (Hoffmann-La Roche Inc., Switzerland). […] The kinase assay was performed using kit from Calbiochem.

binding result [1]: no binding
B1: GST-Ack1 (kinase, SH3 and CRIB domain), expressed in E. coli (enzyme, UniProt Q07912 110-476, looked up)
chain: GEGPLQSLTCLIGEKDLRLLEKLGDGSFGVVRRGEWDAPSGKTVSVAVKCLKPDVLSQPEAMDDFIREVNAMHSLDHRNLIRLYGVVLTPPMKMVTELAPLGSLLDRLRKHQGHFLLGTLSRYAVQVAEGMGYLESKRFIHRDLAARNLLLATRDLVKIGDFGLMRALPQNDDHYVMQEHRKVPFAWCAPESLKTRTFSHASDTWMFGVTLWEMFTYGQEPWIGLNGSQILHKIDKEGERLPRPEDCPQDIYNVMVQCWAHKPEDRPTFVALRDFLLEAQPTDMRALQDFEEPDKLHIQMNDVITVIEGRAENYWWRGQNTRTLCVGPFPRNVVTSVAGLSAQDISQPLQNSFIHTGHGDSDPRHCW
notes: domain: kinase, SH3 and CRIB domain; also called GST-tagged Ack1; not shown: GST tag

binding result [2]: binds
B2: endogenous Akt1 of mouse embryo fibroblasts (enzyme, UniProt P31750 1-480, looked up)
chain: MNDVAIVKEGWLHKRGEYIKTWRPRYFLLKNDGTFIGYKERPQDVDQRESPLNNFSVAQCQLMKTERPRPNTFIIRCLQWTTVIERTFHVETPEEREEWATAIQTVADGLKRQEEETMDFRSGSPSDNSGAEEMEVSLAKPKHRVTMNEFEYLKLLGKGTFGKVILVKEKATGRYYAMKILKKEVIVAKDEVAHTLTENRVLQNSRHPFLTALKYSFQTHDRLCFVMEYANGGELFFHLSRERVFSEDRARFYGAEIVSALDYLHSEKNVVYRDLKLENLMLDKDGHIKITDFGLCKEGIKDGATMKTFCGTPEYLAPEVLEDNDYGRAVDWWGLGVVMYEMMCGRLPFYNQDHEKLFELILMEEIRFPRTLGPEAKSLLSGLLKKDPTQRLGGGSEDAKEIMQHRFFANIVWQDVYEKKLSPPFKPQVTSETDTRYFDEEFTAQMITITPPDQDDSMECVDSERRPHFPQFSYSASGTA
notes: Endogenous protein in MEF lysates

From US20120053225A1 (H LEE MOFFITT CANCER CENTER AND RESEARCH INSTITUTE, published 2012)
